The target of one experiment is T1, G9a and GLP (Homo sapiens, UniProt Q96KQ7+Q9H9B1).
T1 sequence (Q96KQ7 2-1210 limits assumed): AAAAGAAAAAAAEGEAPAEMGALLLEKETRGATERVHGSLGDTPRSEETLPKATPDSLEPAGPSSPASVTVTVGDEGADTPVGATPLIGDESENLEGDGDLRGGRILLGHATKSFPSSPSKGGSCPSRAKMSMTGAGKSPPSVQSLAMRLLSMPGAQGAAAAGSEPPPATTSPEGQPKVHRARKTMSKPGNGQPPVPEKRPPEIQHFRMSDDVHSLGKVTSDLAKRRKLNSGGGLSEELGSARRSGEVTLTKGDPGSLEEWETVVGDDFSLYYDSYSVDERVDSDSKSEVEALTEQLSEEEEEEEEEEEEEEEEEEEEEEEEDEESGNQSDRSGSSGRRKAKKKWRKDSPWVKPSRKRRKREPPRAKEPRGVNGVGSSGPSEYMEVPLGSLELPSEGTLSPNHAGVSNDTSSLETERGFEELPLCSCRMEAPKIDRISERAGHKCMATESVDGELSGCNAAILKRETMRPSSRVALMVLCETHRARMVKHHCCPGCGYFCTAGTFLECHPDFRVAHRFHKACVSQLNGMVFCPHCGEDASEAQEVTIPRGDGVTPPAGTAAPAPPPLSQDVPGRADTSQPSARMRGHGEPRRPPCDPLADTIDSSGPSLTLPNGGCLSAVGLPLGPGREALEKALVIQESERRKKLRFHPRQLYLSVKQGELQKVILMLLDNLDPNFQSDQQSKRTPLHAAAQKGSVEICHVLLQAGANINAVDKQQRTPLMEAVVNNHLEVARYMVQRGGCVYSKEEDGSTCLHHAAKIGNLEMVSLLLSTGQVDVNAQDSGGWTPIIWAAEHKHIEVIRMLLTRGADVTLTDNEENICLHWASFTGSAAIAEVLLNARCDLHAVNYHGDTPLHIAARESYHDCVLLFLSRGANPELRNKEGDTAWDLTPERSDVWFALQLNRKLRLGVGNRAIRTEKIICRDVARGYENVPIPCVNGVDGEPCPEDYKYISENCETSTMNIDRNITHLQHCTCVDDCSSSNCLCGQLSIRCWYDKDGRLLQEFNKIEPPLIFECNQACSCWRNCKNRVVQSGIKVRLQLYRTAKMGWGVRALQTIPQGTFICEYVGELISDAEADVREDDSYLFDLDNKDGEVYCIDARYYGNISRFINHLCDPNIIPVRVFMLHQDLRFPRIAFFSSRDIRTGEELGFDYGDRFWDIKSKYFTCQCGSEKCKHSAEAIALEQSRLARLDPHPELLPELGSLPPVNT
T1 sequence (Q9H9B1 2-1298 limits assumed): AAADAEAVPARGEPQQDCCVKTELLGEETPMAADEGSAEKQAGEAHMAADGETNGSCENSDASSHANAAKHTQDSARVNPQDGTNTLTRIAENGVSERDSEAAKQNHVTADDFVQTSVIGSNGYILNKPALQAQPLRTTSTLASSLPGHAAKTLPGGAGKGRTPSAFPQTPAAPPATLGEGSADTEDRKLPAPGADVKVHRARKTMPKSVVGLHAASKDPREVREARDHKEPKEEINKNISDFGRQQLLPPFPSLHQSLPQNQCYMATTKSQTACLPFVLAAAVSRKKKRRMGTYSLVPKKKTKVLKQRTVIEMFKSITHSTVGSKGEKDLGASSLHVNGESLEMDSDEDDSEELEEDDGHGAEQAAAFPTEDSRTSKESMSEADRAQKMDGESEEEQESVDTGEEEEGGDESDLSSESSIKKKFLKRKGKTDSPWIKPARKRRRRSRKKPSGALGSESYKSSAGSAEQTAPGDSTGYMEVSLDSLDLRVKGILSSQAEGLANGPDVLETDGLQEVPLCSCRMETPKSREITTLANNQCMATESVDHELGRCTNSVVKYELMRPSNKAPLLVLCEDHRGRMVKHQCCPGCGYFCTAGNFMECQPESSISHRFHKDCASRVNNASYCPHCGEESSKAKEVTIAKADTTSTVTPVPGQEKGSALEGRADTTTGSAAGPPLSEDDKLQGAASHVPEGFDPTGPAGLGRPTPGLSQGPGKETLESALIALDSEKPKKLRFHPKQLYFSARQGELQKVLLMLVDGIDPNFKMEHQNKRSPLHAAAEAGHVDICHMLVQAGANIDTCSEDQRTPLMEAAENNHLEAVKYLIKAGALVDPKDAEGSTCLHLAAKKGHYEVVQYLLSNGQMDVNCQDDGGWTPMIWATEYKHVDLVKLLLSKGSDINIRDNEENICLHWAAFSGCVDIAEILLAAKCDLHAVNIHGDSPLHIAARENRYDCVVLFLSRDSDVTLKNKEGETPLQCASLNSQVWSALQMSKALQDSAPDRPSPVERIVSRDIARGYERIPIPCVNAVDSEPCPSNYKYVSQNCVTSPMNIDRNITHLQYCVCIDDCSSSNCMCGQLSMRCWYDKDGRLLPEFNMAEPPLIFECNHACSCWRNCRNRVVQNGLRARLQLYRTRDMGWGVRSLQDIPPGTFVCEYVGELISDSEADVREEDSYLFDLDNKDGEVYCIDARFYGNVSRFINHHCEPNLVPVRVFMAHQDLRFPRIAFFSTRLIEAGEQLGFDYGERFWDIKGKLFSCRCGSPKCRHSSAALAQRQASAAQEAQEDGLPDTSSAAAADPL
Put plainly: Triple SILAC pull-down after UNC0638 treatment of 293T cells, DMSO/UNC0638 ratio of protein captured by 3×MBT.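 For all read-outs here: mass spectrometry (Q-Exactive) SILAC quantitation, DMSO/UNC0638 ratio computed after subtracting 3×MBTD355N mutant pull-down background, only proteins with at least twofold 3×MBT over mutant signal considered.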 Format: cell-based. Further details: cells were treated for 24 hours with UNC0638 at 2.5 μM or DMSO vehicle control; endogenous in cells; host or cells: HEK 293T. To be noted: for Relative to UNC0638 UNC Heavy / Relative to UNC0638 UNC Light: SILAC ratio DMSO/UNC0638 of protein pulled down with 3xMBT; for Relative to UNC0638 UNC Heavy: UNC0638 in heavy SILAC media; for Relative to UNC0638 UNC Light: UNC0638 in light SILAC media; for Relative to UNC0638 Average: average of UNC Light and UNC Heavy experiments.

The next experiment concerns 3×MBT domain of L3MBTL1. Put plainly: Triple SILAC pull-down, 3xMBT/3xMBTD355N ratio (cytoplasmic, nuclear and chromatin fractions of 293T cells).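 For all read-outs here: proteins quantified with MaxQuant, requiring at least two unique peptides and quantification in both label directions, normalized to the mean of proteins from a digested loading control.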 Type of experiment: binding, human. To be noted: SILAC ratio, pull-down 3xMBT vs 3xMBTD355N; for 3xMBT/D355N UNC Heavy: experiment with UNC0638 in heavy SILAC media; for 3xMBT/D355N UNC Light: experiment with UNC0638 in light SILAC media.

B1: DDX17 (protein, UniProt Q92841 1-729, looked up)
Probable ATP-dependent RNA …: MPTGFVAPILCVLLPSPTREAATVASATGDSASERESAAPAAAPTAEAPPPSVVTRPEPQALPSPAIRAPLPDLYPFGTMRGGGFGDRDRDRDRGGFGARGGGGLPPKKFGNPGERLRKKKWDLSELPKFEKNFYVEHPEVARLTPYEVDELRRKKEITVRGGDVCPKPVFAFHHANFPQYVMDVLMDQHFTEPTPIQCQGFPLALSGRDMVGIAQTGSGKTLAYLLPAIVHINHQPYLERGDGPICLVLAPTRELAQQVQQVADDYGKCSRLKSTCIYGGAPKGPQIRDLERGVEICIATPGRLIDFLESGKTNLRRCTYLVLDEADRMLDMGFEPQIRKIVDQIRPDRQTLMWSATWPKEVRQLAEDFLRDYTQINVGNLELSANHNILQIVDVCMESEKDHKLIQLMEEIMAEKENKTIIFVETKRRCDDLTRRMRRDGWPAMCIHGDKSQPERDWVLNEFRSGKAPILIATDVASRGLDVEDVKFVINYDYPNSSEDYVHRIGRTARSTNKGTAYTFFTPGNLKQARELIKVLEEANQAINPKLMQLVDHRGGGGGGGGRSRYRTTSSANNPNLMYQDECDRRLRGVKDGGRRDSASYRDRSETDRAGYANGSGYGSPNSAFGAQAGQYTYGQGTYGAAAYGTSSYTAQEYGAGTYGASSTTSTGRSSQSSSQQFSGIGRSGQQPQPLMSQQFAQPPGATNMIGYMGQTAYQYPPPPPPPPPSRK
Take B1: in the experiment with G9a and GLP, the “Relative to UNC0638 UNC Heavy” value is recorded as 0.21 log base 2, the “Relative to UNC0638 UNC Light” value is listed as 0.12 log base 2 and the “Relative to UNC0638 Average” value came out at 0.16 log base 2. In the experiment with 3×MBT domain of L3MBTL1, the “3xMBT/D355N UNC Heavy” value was determined as 2.61 log base 2 and the “3xMBT/D355N UNC Light” value is recorded as 2.86 log base 2.

B2: SEPT2 (protein, UniProt Q15019 1-361, looked up)
Septin-2: MSKQQPTQFINPETPGYVGFANLPNQVHRKSVKKGFEFTLMVVGESGLGKSTLINSLFLTDLYPERVIPGAAEKIERTVQIEASTVEIEERGVKLRLTVVDTPGYGDAINCRDCFKTIISYIDEQFERYLHDESGLNRRHIIDNRVHCCFYFISPFGHGLKPLDVAFMKAIHNKVNIVPVIAKADTLTLKERERLKKRILDEIEEHNIKIYHLPDAESDEDEDFKEQTRLLKASIPFSVVGSNQLIEAKGKKVRGRLYPWGVVEVENPEHNDFLKLRTMLITHMQDLQEVTQDLHYENFRSERLKRGGRKVENEDMNKDQILLEKEAELRRMQEMIARMQAQMQMQMQGGDGDGGALGHHV
For the molecule B2, in the experiment with G9a and GLP, the “Relative to UNC0638 UNC Heavy” value stood at 0.21 log base 2, the “Relative to UNC0638 UNC Light” value is given as 0.12 log base 2 and the “Relative to UNC0638 Average” value came out at 0.17 log base 2. In the experiment on 3×MBT domain of L3MBTL1, the “3xMBT/D355N UNC Heavy” value is recorded as 1.89 log base 2 and the “3xMBT/D355N UNC Light” value was 2.49 log base 2.

B3: SFPQ (protein, UniProt P23246 1-707, looked up)
Splicing factor, proline- and …: MSRDRFRSRGGGGGGFHRRGGGGGRGGLHDFRSPPPGMGLNQNRGPMGPGPGQSGPKPPIPPPPPHQQQQQPPPQQPPPQQPPPHQPPPHPQPHQQQQPPPPPQDSSKPVVAQGPGPAPGVGSAPPASSSAPPATPPTSGAPPGSGPGPTPTPPPAVTSAPPGAPPPTPPSSGVPTTPPQAGGPPPPPAAVPGPGPGPKQGPGPGGPKGGKMPGGPKPGGGPGLSTPGGHPKPPHRGGGEPRGGRQHHPPYHQQHHQGPPPGGPGGRSEEKISDSEGFKANLSLLRRPGEKTYTQRCRLFVGNLPADITEDEFKRLFAKYGEPGEVFINKGKGFGFIKLESRALAEIAKAELDDTPMRGRQLRVRFATHAAALSVRNLSPYVSNELLEEAFSQFGPIERAVVIVDDRGRSTGKGIVEFASKPAARKAFERCSEGVFLLTTTPRPVIVEPLEQLDDEDGLPEKLAQKNPMYQKERETPPRFAQHGTFEYEYSQRWKSLDEMEKQQREQVEKNMKDAKDKLESEMEDAYHEHQANLLRQDLMRRQEELRRMEELHNQEMQKRKEMQLRQEEERRRREEEMMIRQREMEEQMRRQREESYSRMGYMDPRERDMRMGGGGAMNMGDPYGSGGQKFPPLGGGGGIGYEANPGVPPATMSGSMMGSDMRTERFGQGGAGPVGGQGPRGMGPGTPAGYGRGREEYEGPNKKPRF
As to B3, in the experiment with G9a and GLP, the “Relative to UNC0638 UNC Heavy” value came out at 0.08 log base 2, the “Relative to UNC0638 UNC Light” value was determined as 0.25 log base 2 and the “Relative to UNC0638 Average” value stood at 0.17 log base 2. Also, in the experiment on 3×MBT domain of L3MBTL1, the “3xMBT/D355N UNC Heavy” value is listed as 3.19 log base 2 and the “3xMBT/D355N UNC Light” value worked out at 3.86 log base 2.

B4: DRG1 (protein, UniProt Q9Y295 2-367, looked up)
Developmentally-regulated …: SSTLAKIAEIEAEMARTQKNKATAHHLGLLKARLAKLRRELITPKGGGGGGPGEGFDVAKTGDARIGFVGFPSVGKSTLLSNLAGVYSEVAAYEFTTLTTVPGVIRYKGAKIQLLDLPGIIEGAKDGKGRGRQVIAVARTCNLILIVLDVLKPLGHKKIIENELEGFGIRLNSKPPNIGFKKKDKGGINLTATCPQSELDAETVKSILAEYKIHNADVTLRSDATADDLIDVVEGNRVYIPCIYVLNKIDQISIEELDIIYKVPHCVPISAHHRWNFDDLLEKIWDYLKLVRIYTKPKGQLPDYTSPVVLPYSRTTVEDFCMKIHKNLIKEFKYALVWGLSVKHNPQKVGKDHTLEDEDVIQIVKK
Turning to B4, in the experiment with G9a and GLP, the “Relative to UNC0638 UNC Heavy” value is 0.36 log base 2, the “Relative to UNC0638 UNC Light” value is reported as −0.03 log base 2 and the “Relative to UNC0638 Average” value is listed as 0.16 log base 2. Also, in the experiment with 3×MBT domain of L3MBTL1, the “3xMBT/D355N UNC Heavy” value turned out to be 3.49 log base 2 and the “3xMBT/D355N UNC Light” value was 3.66 log base 2.

B5: C14orf166 (protein, UniProt Q9Y224 1-244, looked up)
RNA transcription, …: MFRRKLTALDYHNPAGFNCKDETEFRNFIVWLEDQKIRHYKIEDRGNLRNIHSSDWPKFFEKYLRDVNCPFKIQDRQEAIDWLLGLAVRLEYGDNAEKYKDLVPDNSKTADNATKNAEPLINLDVNNPDFKAGVMALANLLQIQRHDDYLVMLKAIRILVQERLTQDAVAKANQTKEGLPVALDKHILGFDTGDAVLNEAAQILRLLHIEELRELQTKINEAIVAVQAIIADPKTDHRLGKVGR
For the molecule B5, in the experiment with G9a and GLP, the “Relative to UNC0638 UNC Heavy” value was determined as 0.09 log base 2, the “Relative to UNC0638 UNC Light” value is recorded as 0.24 log base 2 and the “Relative to UNC0638 Average” value was 0.16 log base 2. Also, in the experiment on 3×MBT domain of L3MBTL1, the “3xMBT/D355N UNC Heavy” value came out at 3.09 log base 2 and the “3xMBT/D355N UNC Light” value was found to be 3.13 log base 2.

The values are drawn from patent US20140274782A1, “AFFINITY REAGENTS AND METHODS FOR DETECTION, PURIFICATION, AND PROTEOMIC ANALYSIS OF METHYLATED PROTEINS” (The Board of Trustees of the Leland Stanford Junior …, priority 2013, published 2014).
